How the values were obtained:
[1] = system: Naïve CD4+ T cells from B6 mice, Treg (FoxP3+) cells; assay: In vitro Treg (FoxP3+) differentiation of retrovirally transduced CD4+ T cells; type: cell-based, mouse; settings: Treg-polarizing conditions (IL-2+TGFβ), GFP+FoxP3+ cells
Procedure: (§1) Naïve CD4+ T cells from B6 mice stimulated with anti-CD3 plus anti-CD28 mAbs and differentiated in vitro under Treg-polarizing conditions (IL-2+TGFβ) were retrovirally transduced with empty pMIG vector, or with the indicated PKCθ V3 vectors. Transduced (GFP+) cells were sorted and FoxP3+ cells were analyzed by intracellular staining.
as §1, with “CD4^+” for “CD4+”, “(GFP+)” for “(GFP+) cells were sorted and”, “intracellular staining 8 hours after restimulation. Right panels represent cumulative data showing percentage of GFP+FoxP3+ cells by intracellular” for “intracellular”

endogenous PKCθ = assay: IS localization in OT-II CD4+ T cells conjugated with Ova-loaded APCs (confocal); type: cell-based, mouse; settings: OT-II TCR-Tg CD4+ T cells
Procedure: (FIG. 6A) OT-II CD4^+ T cells were infected with retrovirus expressing Myc-tagged V3 domain, V3 mutated at P330/1/4/6A (V3-4PA), or PR motif-deleted V3 (V3-ΔPR). Infected cells (green) were harvested, stimulated, and fixed. Conjugates were stained with anti-Myc plus a secondary Alexa 555-coupled antibody (orange), and anti-PKCθ plus a secondary Alexa 647-coupled antibody (red). Cells were analyzed as in FIG. 1A. (FIG. 6B) Quantitative analysis of the results shown in (FIG. 6A) from 30-50 T-APC conjugates. ** p<0.05. (FIG. 6C) MCC-specific T hybridoma cells were cotransfected with indicated vector, together with RE/AP-Luc and β-Gal reporter plasmids. Cells were stimulated and analyzed as in FIG. 1C. (FIG. 6D) Naïve CD4^+ T cells from B6 mice stimulated with anti-CD3 plus anti-CD28 mAbs and differentiated in vitro under Th1-, Th2- or Th17-polarizing conditions were retrovirally transduced with empty pMIG vector, or with the indicated PKCθ V3 vectors. Cytokine-producing cells were analyzed by intracellular staining 8 h after restimulation. Right panels represent cumulative data showing percentage of cytokine-producing cells by intracellular staining. (FIG. 6E) MCC-specific T hybridoma cells were cotransfected with the indicated plasmids, together with NFAT luciferase reporter and a β-Gal reporter plasmid. Cells were incubated with fibroblasts that express I-E^K and B7-1 in the absence or presence of MCC peptide for 6 hrs. Normalized luciferase activity was determined in triplicates.
Full-length human PKCθ and its derivatives were cloned as a GFP fusion protein in the pMX retroviral vector. Retroviral supernatants were used to infect preactivated CD4^+ T cells from PKCθ^−/− or WT OT-II mice. Transduced cells were rested for an additional three days. On the day of experiment, APC were prepared from WT B6 splenocytes that were depleted of CD4^+ T cells using anti-CD4 (L3T4) mAb-coated beads. T-depleted APC were stained with 20 μM of cell tracker blue (CMAC) and then pulsed with 5 μM Ova peptide, respectively, for 30 min at 37° C. T cell-APC conjugation was carried out at 37° C. for 20 min before fixation with 4% paraformaldehyde and permeabilization with PBS supplemented with 1% BSA and 0.1% Triton X-100. […] Immunofluorescene images were captured using a Marianas digital fluorescence-microscopy system (Intelligent Imaging Innovations) as described (Becart, S. et al. Immunity 29, 704-719 (2008)).
Given the critical role of the PKCθ V3 domain in the enzyme's CD28 association, IS localization, and activation of downstream targets, ectopic expression of the isolated V3 domain was analyzed for interference with the localization and function of PKCθ in stimulated T cells. […]

[2] = system: Th2-mediated lung inflammation; assay: Th2-mediated Ova-induced airway inflammation after adoptive transfer of transduced OT-II Th2 cells; type: in vivo, mouse; settings: transferred Th2 cells, aerosolized Ova 3 consecutive days
From the text: (FIG. 7A-7D) OT-II CD4^+ T cells stimulated with anti-CD3 plus anti-CD28 mAbs and differentiated in vitro under Th2 (FIG. 7A-7C) or Th1 (FIG. 7D, 7E)-polarizing conditions were retrovitrally transduced with the same PKCθ V3 vectors as in FIG. 6. Sorted GFP^+ populations were adoptively transferred into naïve B6 mice, which were challenged with aerosolized Ova for 3 consecutive days. BAL fluid were obtained 1 d post-challenge and analyzed for total mononuclear cell infiltration (FIG. 7A, 7D) and cytokine expression using IL-4 (FIG. 7B), IL-5 (FIG. 7C) and IFN-γ (FIG. 7E) ELISA.
CD4^+ T cells from OT-II B6 mice were isolated and cultured with plate-bound anti-CD3 (5 μg/ml), soluble anti-CD28 (2.5 μg/ml) and IL-2 (100 U/ml) under Th1 or Th2 polarizing conditions. The cells were retrovirally infected on days 2-4 and cultured for an additional 3 days. GFP^+ cells were sorted, and 1×10^6 cells were injected intravenously into naïve WT B6 mice. One day later, mice received aerosolized Ova (5 mg/ml in 20 ml PBS) for 30 min, once a day for 3 consecutive days, using ultrasonic nebulization. Mice were sacrificed 24 h after the last challenge and assessed for lung inflammation. Collection of BAL fluid and determination of cytokine levels were carried out as described (Salek-Ardakani, S. et al. J Immunol 173, 6440-6447 (2004)).
The above findings were extended to an in vivo antigen-specific inflammatory response in an airway inflammation model, using a T cell adoptive transfer system. Mice receiving OT-II Th2 cells transduced with an empty vector developed an inflammatory response by comparison with PBS-challenged control mice, as evidenced by a significant increase in the number of infiltrating leukocytes in the bronchoalveolar lavages (BAL) fluid (FIG. 7a) and in the levels of signature Th2 cytokines, IL-4 (FIG. 7b) and IL-5 (FIG. 7c).

B1: V3-4PA: V3 mutated at P330/1/4/6A (4 Pro residues in the Pro-rich motif to Ala) (protein)
chain: MSPFLRIGLSNFDCGSCQSCQGEAVNPYCAVLVKEYVESENGQMYIQKKPTMYPPWDSTFDAHINKGRVMQIIVKGKNVDLISETTVELYSLAERCRKNNGKTEIWLELKPQGRMLMNARYFLEMSDTKDMNEFETEGFFALHQRRGAIKQAKVHHVKCHEFTATFFPQPTFCSVCHEFVWGLNKQGYQCRQCNAAIHKKCIDKVIAKCTGSAINSRETMFHKERFKIDMPHRFKVYNYKSPTFCEHCGTLLWGLARQGLKCDACGMNVHHRCQTKVANLCGINQKLMAEALAMIESTQQARCLRDTEQIFREGPVEIGLPCSIKNEARAACLATAGKREPQGISWESPLDEVDKMCHLPEPELNKERPSLQIKLKIEDFILHKMLGKGSFGKVFLAEFKKTNQFFAIKALKKDVVLMDDDVECTMVEKRVLSLAWEHPFLTHMFCTFQTKENLFFVMEYLNGGDLMYHIQSCHKFDLSRATFYAAEIILGLQFLHSKGIVYRDLKLDNILLDKDGHIKIADFGMCKENMLGDAKTNTFCGTPDYIAPEILLGQKYNHSVDWWSFGVLLYEMLIGQSPFHGQDEEELFHSIRMDNPFYPRWLEKEAKDLLVKLFVREPEKRLGVRGDIRQHPLFREINWEELERKEIDPPFRPKVKSPFDCSNFDKEFLNEKPRLSFADRALINSMDQNMFRNFSFMNPGMERLIS
- promotion of Treg differentiation [1]: not
- effect on IS localization of endogenous PKCθ (endogenous PKCθ): did not interfere with the IS localization of endogenous PKCθ
- subcellular localization of the transduced V3 protein (endogenous PKCθ): did not localize anymore in the IS
- inhibition of the Th2 inflammatory response [2]: partially rescued the inhibition
